Earlier results in US20070225245A1, “Viral vector driven mutant bacterial cytosine deaminase gene and uses thereof” (priority 1998, published 2007).

B1: bCD: wild type bacterial cytosine deaminase (protein, UniProt P25524 2-427, looked up)
Cytosine deaminase: SNNALQTIINARLPGEEGLWQIHLQDGKISAIDAQSGVMPITENSLDAEQGLVIPPFVEPHIHLDTTQTAGQPNWNQSGTLFEGIERWAERKALLTHDDVKQRAWQTLKWQIANGIQHVRTHVDVSDATLTALKAMLEVKQEVAPWIDLQIVAFPQEGILSYPNGEALLEEALRLGADVVGAIPHFEFTREYGVESLHKTFALAQKYDRLIDVHCDEIDDEQSRFVETVAALAHHEGMGARVTASHTTAMHSYNGAYTSRLFRLLKMSGINFVANPLVNIHLQGRFDTYPKRRGITRVKEMLESGINVCFGHDDVFDPWYPLGTANMLQVLHMGLHVCQLMGYGQINDGLNLITHHSARTLNLQDYGIAAGNSANLIILPAENGFDALRRQVPVRYSVRGGKVIASTQPAQTTVYLEQPEAIDYKR
B2: yCD: yeast cytosine deaminase (protein, UniProt Q12178 1-158, looked up)
Cytosine deaminase: MVTGGMASKWDQKGMDIAYEEAALGYKEGGVPIGGCLINNKDGSVLGRGHNMRFQKGSATLHGEISTLENCGRLEGKVYKDTTLYTTLSPCDMCTGAIIMYGIPRCVVGENVNFKSKGEKYLQTRGHEVVVVDDERCKKIMKQFIDERPQDWFEDIGE

Conditions: cited from earlier work

Row | Molecule | retained activity (at 168 h) [%] | enzyme activity (by 96 h at 37° C.)
1 | B1 | 100 | –
2 | B2 | – | loses all activity
